Experimental findings from patent US20250026814A1 are described below.

“And” between values parts separate entries of the source, which are not always exact repeats. Equal values may be shown once.

This assay concerns the target spike BA.1 antigens. As to the kind of experiment: ELISA (AUC). In general terms: ELISA stands for enzyme-linked immunosorbent assay.

B1: S626-161 (antibody, V domains shown)
VH: QLQLQESGPGLVKPSETLSLTCTVSGGSISSNNYYWGWIRQPPGKGLEWIGSIYYSGSTYYNPSLKSRVTMSVDTSKNQFSLKLSSVTAADTAVYHCARQGPNYYDRSGYYYVGPFDIWGQGTMVTVSS
VL: QSVLTQPPSVSAAPGQKVTISCSGSSSNIGNNSVSWYQHLPGTAPKLLIYENNERPSGIPDRFSGSKSGTSATLGITGLQTGDEADYYCETWDRSLSASFGTGTKVTVL
Turning to B1, the fold reduced binding was 1.7 fold and 3.9 fold.
